B2: NCD1 (non-catalytic domain 1, a.a. 144-208 of hA3G) (other, human, UniProt Q9HC16 144-208, looked up)
chain: GPRATMKIMNYDEFQHCWSKFVYSQRELFEPWNNLPKYYILLHIMLGEILRHSMDPPTFTFNFNN
notes: range 144-208; not shown: N-terminal tag HA, V5, EGFP-HA or EGFP-V5, differing by experiment
B6: CD1 (catalytic domain 1, a.a. 1-143 of hA3G) (other, human, UniProt Q9HC16 1-143, looked up, not shown: small tags and cut ends)
chain: MKPHFRNTVERMYRDTFSYNFYNRPILSRRNTVWLCYEVKTKGPSRPPLDAKIFRGQVYSELKYHPEMRFFHWFSKWRKLHRDQEYEVTWYISWSPCTKCTRDMATFLAEDPKVTLTIFVARLYYFWDPDYQEALRSLCQKRD
notes: range 1-143; also called N-terminal catalytic domain
B7: N1/2 (CD1-NCD1, a.a. 1-208 of hA3G) (other, human, UniProt Q9HC16 1-208, looked up)
chain: MKPHFRNTVERMYRDTFSYNFYNRPILSRRNTVWLCYEVKTKGPSRPPLDAKIFRGQVYSELKYHPEMRFFHWFSKWRKLHRDQEYEVTWYISWSPCTKCTRDMATFLAEDPKVTLTIFVARLYYFWDPDYQEALRSLCQKRDGPRATMKIMNYDEFQHCWSKFVYSQRELFEPWNNLPKYYILLHIMLGEILRHSMDPPTFTFNFNN
notes: range 1-208; Expressed in 293T cells; tested in RNase A treated cell extracts; also called N-terminal half of hA3G; not shown: N-terminal tag HA, V5, EGFP-HA or EGFP-V5, differing by experiment

In series [1] the target is T1, Protein A (agarose beads, no antibody) (UniProt P38507 37-477).
T1 construct: Bead-only control of the immunoprecipitations; also called Protein A beads
Nature of the series: IP with Protein A beads alone.
Protocol: (§1) Twenty-four hours after transfection the cells were harvested and cell extracts were analyzed by co-immunoprecipitation (co-IP). Extracts were treated with RNase A prior to IP to eliminate interactions that were due to RNA bridging.
(§2) Co-immunoprecipitation analysis. […] 24 hours after transfection cell extracts were harvested in NP-40 lysis buffer (50 mM Tris pH 7.4, 150 mM NaCl, 0.1% NP-40) with Complete® Mini EDTA free protease inhibitors (Roche). Cell extracts were treated with 40 μg/mL of RNase A for 1 hour at 37° C. and subsequently pre-cleared with Protein A agarose beads (Roche) tumbling for 1 hour at 4° C. The pre-cleared extracts were split and added to a Protein A bead slurry±V5 (Invitrogen) or GFP antibody (Clontech) for immunoprecipitation by tumbling overnight at 4° C. The beads were washed 3 times with NP-40 lysis buffer and eluted 3 times with 1×Treat (50 mM Tris pH 7.4, 10 mM DTT, 0.1% SDS).

Series [2] has as its target B7. Nature of the series: co-IP of HA and V5 tagged domains, V5 IP, HA western.
Protocol: as §1, §2
The target of series [3] is T2, HIV-1 p55 Gag polyprotein (HIV-1, UniProt P12493 2-500).
T2 construct: Expressed in 293T cells co-transfected with HIV-1 DNA; detected with a p24 antibody
Nature of the series: V5 IP of hA3G domain, p24 western for Gag, RNase A treated 293T extracts.
Protocol: Co-IP experiments were performed using various hA3G domains and Gag or Vif following RNase A digestion of cell extracts.
as §2

Series [4] deals with the molecule itself. Nature of the series: co-IP of HA and V5 tagged forms, V5 IP, HA western, RNase A treated 293T extracts.
Protocol: as §1, §2
For a further series, the target named is T3, EGFP-HA tagged Vif (HIV-1, UniProt P12504 1-192).
T3 construct: Expressed in 293T cells from pIRES-P; also called EGFP-HA-Vif; HIV-1 Vif; not shown: N-terminal EGFP-HA tag
Nature of the series: GFP antibody IP of EGFP-HA-Vif, western for the hA3G domain, RNase A treated 293T extracts.

Series [5] deals with the molecule itself. Nature of the series: co-IP of HA and V5 tagged forms, V5 IP, HA western.
Protocol: as §1, §2
Series [6] deals with the molecule itself. Nature of the series: summary of the co-IP results of Example 2.
Protocol: as §1, §2
Series [7] has as its target B6. Nature of the series: co-IP of HA and V5 tagged domains, V5 IP, HA western.
Protocol: as §1, §2
For series [8], the target named is B2. Described as above.
Protocol: as §1, §2

T3 sequence (P12504 whole entry): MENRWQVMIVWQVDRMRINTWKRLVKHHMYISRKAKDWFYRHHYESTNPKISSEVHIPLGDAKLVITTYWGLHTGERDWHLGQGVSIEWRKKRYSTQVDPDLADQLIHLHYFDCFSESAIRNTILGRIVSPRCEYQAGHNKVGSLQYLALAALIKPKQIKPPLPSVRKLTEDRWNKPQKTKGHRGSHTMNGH

B1: C1/2 (CD2-NCD2, a.a. 209-384 of hA3G) (other, human, UniProt Q9HC16 209-384, looked up)
chain: EPWVRGRHETYLCYEVERMHNDTWVLLNQRRGFLCNQAPHKHGFLEGRHAELCFLDVIPFWKLDLDQDYRVTCFTSWSPCFSCAQEMAKFISKNKHVSLCIFTARIYDDQGRCQEGLRTLAEAGAKISIMTYSEFKHCWDTFVDHQGCPFQPWDGLDEHSQDLSGRLRAILQNQEN
notes: Self co-IP was done with and without EGFP (±EGFP); also called C-terminal half of hA3G; not shown: N-terminal tag HA, V5, EGFP-HA or EGFP-V5, differing by experiment
With B1, the binding result is “no binding” in series [1]; “no binding” in series [2]; “no binding” in series [3]; “binds” in series [4]; “no binding” with EGFP-HA tagged Vif.
As for B2, the binding result in series [1] and in series [5] was “no binding” throughout.

B3: CD2 (catalytic domain 2, a.a. 209-336 of hA3G) (other, human, UniProt Q9HC16 209-336, looked up)
chain: EPWVRGRHETYLCYEVERMHNDTWVLLNQRRGFLCNQAPHKHGFLEGRHAELCFLDVIPFWKLDLDQDYRVTCFTSWSPCFSCAQEMAKFISKNKHVSLCIFTARIYDDQGRCQEGLRTLAEAGAKIS
notes: also called C-terminal catalytic domain; not shown: N-terminal tag HA, V5, EGFP-HA or EGFP-V5, differing by experiment
In the case of B3, the binding result in [6] is “binds”; in [1], “no binding”; in series [7] it was “no binding”; in [3], “no binding”.

B4: C3/4 (larger C-terminal domain lacking only CD1, a.a. 144-384 of hA3G) (other, human, UniProt Q9HC16 144-384, looked up)
chain: GPRATMKIMNYDEFQHCWSKFVYSQRELFEPWNNLPKYYILLHIMLGEILRHSMDPPTFTFNFNNEPWVRGRHETYLCYEVERMHNDTWVLLNQRRGFLCNQAPHKHGFLEGRHAELCFLDVIPFWKLDLDQDYRVTCFTSWSPCFSCAQEMAKFISKNKHVSLCIFTARIYDDQGRCQEGLRTLAEAGAKISIMTYSEFKHCWDTFVDHQGCPFQPWDGLDEHSQDLSGRLRAILQNQEN
notes: range 144-384; not shown: N-terminal tag HA, V5, EGFP-HA or EGFP-V5, differing by experiment
Regarding B4, the binding result in series [1] was “no binding”; in series [4], “binds”.

B5: NCD2 (non-catalytic domain 2, a.a. 337-384 of hA3G) (other, human, UniProt Q9HC16 337-384, looked up)
chain: IMTYSEFKHCWDTFVDHQGCPFQPWDGLDEHSQDLSGRLRAILQNQEN
notes: range 337-384; not shown: N-terminal tag HA, V5, EGFP-HA or EGFP-V5, differing by experiment
As to B5, the binding result in series [1], in series [8] and in [5] was “no binding” throughout.
As for B6, the binding result in [1], in [5] and in series [3] was “no binding” each time.
B7: the binding result in [1] and in series [5] was “no binding” in each case.

The values above are taken from patent US20100197768A1 (UNIVERSITY OF ROCHESTER, published 2010).
